Experimental data published in PMC5074521, “Dom34 Links Translation to Protein O-mannosylation”.

B1: PMT1 5'-UTR RNA (full) (structured_RNA)
RNA: GGCAAGAUUCUUUUUCAAGAUUUUUCAUUUUUACAACAACAACAACAACCACCACAACCACAACUAUAAACAAUUGAUAUAGCAUUAUCUUUUAAGAUUAUUGAAUAAAGGUCAAUUUAUAGCGCCCCCCCUCACUCCACCUCCUACCGUCUUUCUUUCACGCAACUAAAACAAAUUUUUAUAUUUUUAUUUUUAUUUUUAUUUUAGUUUCCCAUUCAAUAGAUC

Columns and labels:
Dom34 E21A [1] = target: T1, Dom34 E21A (Candida albicans, UniProt A0A1D8PSD0 1-393, E21A); experiment: EMSA; heparin challenge 50 ng/ul; apparent KD; UTR/6S EMSA: 10 mM Tris-HCl pH 8.0, 100 mM NaCl, 30 C 10 min, then heparin 50 ng/ul 10 min, native 5% PAGE (legend 6%); oligo EMSA: LightShift RNA EMSA kit, room temperature 20 min; footprint: RNase 1 min at 37 C; details: protein: recombinant; tags: C-terminal His6; label: 3'-32P-pCp; single strand with predicted paired regions
Dom34 [2] = target: T2, Dom34 (Candida albicans, UniProt A0A1D8PSD0 1-393); experiment: EMSA; heparin challenge; binding visible above 0.3 uM, no free RNA at 2.5 uM (bound or degraded); lower affinity than E21A; UTR/6S EMSA: 10 mM Tris-HCl pH 8.0, 100 mM NaCl, 30 C 10 min, then heparin 50 ng/ul 10 min, native 5% PAGE (legend 6%); oligo EMSA: LightShift RNA EMSA kit, room temperature 20 min; footprint: RNase 1 min at 37 C; details: protein: recombinant; tags: C-terminal His6; label: 3'-32P-pCp; single strand with predicted paired regions
Dom34 N317A = Dom34 N317A (Candida albicans, UniProt A0A1D8PSD0 1-393, N317A); experiment: EMSA; 400 nM protein, 20 nM RNA; as wild type; UTR/6S EMSA: 10 mM Tris-HCl pH 8.0, 100 mM NaCl, 30 C 10 min, then heparin 50 ng/ul 10 min, native 5% PAGE (legend 6%); oligo EMSA: LightShift RNA EMSA kit, room temperature 20 min; footprint: RNase 1 min at 37 C; details: protein: recombinant; tags: C-terminal His6; label: 3'-biotin; single strand
Dom34 E21A [3] = target: T1, Dom34 E21A; experiment: EMSA; 400 nM protein, 20 nM RNA; enhanced vs wild type; UTR/6S EMSA: 10 mM Tris-HCl pH 8.0, 100 mM NaCl, 30 C 10 min, then heparin 50 ng/ul 10 min, native 5% PAGE (legend 6%); oligo EMSA: LightShift RNA EMSA kit, room temperature 20 min; footprint: RNase 1 min at 37 C; details: protein: recombinant; tags: C-terminal His6; label: 3'-biotin; single strand
Dom34 [4] = target: T2, Dom34; experiment: EMSA; 400 nM protein, 20 nM RNA; complex I, plus II with 0.05% lauryl sarcosinate; UTR/6S EMSA: 10 mM Tris-HCl pH 8.0, 100 mM NaCl, 30 C 10 min, then heparin 50 ng/ul 10 min, native 5% PAGE (legend 6%); oligo EMSA: LightShift RNA EMSA kit, room temperature 20 min; footprint: RNase 1 min at 37 C; details: protein: recombinant; tags: C-terminal His6; label: 3'-biotin; single strand

Binder | Kd (Dom34 E21A [1]) | binding result (Dom34 [2]) | binding result (Dom34 N317A) | binding result (Dom34 E21A [3]) | binding result (Dom34 [4])
B1 | ~100 nM | binds | – | – | –
ACAACAACAACAACAACCACCACAACCACAACUAUAAACAAU (ssRNA) [PMT1 5'-UTR RNA oligonucleotide] | – | – | binds | binds | binds
